Laboratory results from patent US5493008A, “Two non-contiguous regions contribute to nidogen binding to a single EGF-like motif of the laminin γ1 chain” (The University Of Virginia Patent Foundation, priority 1994, dated 1996).
Positions count from the first letter of the chain named. Where two headings read alike, the source gives them in different places. Where no end group is shown, it is not given here. The star is where a group is joined. Succinimide(1-Et,3-yl) = CCN1C(=O)CC(*)C1=O

How the values were obtained:
nidogen = target: T1, nidogen (Mus musculus, UniProt P10493); conditions: Fox et al. 1991; read-out: κD of the high affinity binding site for nidogen; cited from earlier work
T1 sequence (P10493 29-1245): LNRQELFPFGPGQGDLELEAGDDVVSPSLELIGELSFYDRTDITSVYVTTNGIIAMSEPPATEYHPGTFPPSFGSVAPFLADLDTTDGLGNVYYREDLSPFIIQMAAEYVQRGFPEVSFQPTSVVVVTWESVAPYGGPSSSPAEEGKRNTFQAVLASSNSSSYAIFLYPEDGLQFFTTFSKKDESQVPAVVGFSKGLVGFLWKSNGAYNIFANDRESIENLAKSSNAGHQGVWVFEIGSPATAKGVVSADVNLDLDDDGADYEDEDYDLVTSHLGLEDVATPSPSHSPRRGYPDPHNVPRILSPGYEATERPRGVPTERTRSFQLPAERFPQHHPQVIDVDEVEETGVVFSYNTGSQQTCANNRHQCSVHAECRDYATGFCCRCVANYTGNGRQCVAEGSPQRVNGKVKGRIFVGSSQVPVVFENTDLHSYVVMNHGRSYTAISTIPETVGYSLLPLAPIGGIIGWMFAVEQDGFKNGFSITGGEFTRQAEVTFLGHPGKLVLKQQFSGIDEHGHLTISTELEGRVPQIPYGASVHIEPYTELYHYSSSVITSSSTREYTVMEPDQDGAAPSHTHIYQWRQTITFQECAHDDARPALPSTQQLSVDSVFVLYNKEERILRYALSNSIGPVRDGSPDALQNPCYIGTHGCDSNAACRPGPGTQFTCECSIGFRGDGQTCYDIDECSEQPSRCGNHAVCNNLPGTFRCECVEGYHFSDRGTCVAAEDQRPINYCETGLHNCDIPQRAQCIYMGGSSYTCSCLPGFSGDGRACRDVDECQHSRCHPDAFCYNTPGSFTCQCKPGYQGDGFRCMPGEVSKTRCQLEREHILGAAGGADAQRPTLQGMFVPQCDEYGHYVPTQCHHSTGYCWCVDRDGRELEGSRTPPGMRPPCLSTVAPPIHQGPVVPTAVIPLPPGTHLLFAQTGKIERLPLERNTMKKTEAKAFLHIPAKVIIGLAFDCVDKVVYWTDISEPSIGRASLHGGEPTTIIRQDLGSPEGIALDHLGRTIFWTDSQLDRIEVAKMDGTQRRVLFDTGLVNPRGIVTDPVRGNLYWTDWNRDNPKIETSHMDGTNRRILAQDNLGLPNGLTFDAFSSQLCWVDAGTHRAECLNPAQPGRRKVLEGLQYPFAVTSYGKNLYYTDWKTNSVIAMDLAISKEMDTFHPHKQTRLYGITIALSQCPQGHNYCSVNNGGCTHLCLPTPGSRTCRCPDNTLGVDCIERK

[1] = target: T2, recombinant nidogen (Mus musculus (Mouse)) (UniProt P10493); test: radioligand competition assay: non-labeled fragment P1 varied, 0.2 nM recombinant nidogen, 125I-laminin fragment P1
T2 sequence: T1 sequence (P10493 29-1245)

[2] = target: T2, recombinant nidogen (Mus musculus (Mouse)); test: as above; remark: listed apart in the source
[3] = target: T2, recombinant nidogen (Mus musculus (Mouse)); test: radioligand competition assay, average of 14 separate assays: non-labeled fragment P1 varied, 0.2 nM recombinant nidogen, 125I-laminin fragment P1
recombinant nidogen [4] = target: T3, recombinant nidogen (Mus musculus (Mouse), UniProt P10493); test: radioligand competition assay; end of the range tied to this mutant by its IC50 in Table IV
T3 sequence: T1 sequence (P10493 29-1245)
Protocol: (§1) A radioligand competition assay was used for measurement of relative binding affinities (Mann K. et al. (1988), Eur. J. Biochem., 178, 71–80; Fox, J. W. et al. (1991), EMBO J., 10, 3137–3146). A fixed concentration of recombinant nidogen (0.2 nM) was incubated overnight at 4° C. with inhibitors at varying concentrations, followed by the addition of ^125I-labeled laminin fragment P1 (0.01 nM; 10,000–20,000 c.p.m.) for the same incubation period. Bound and non-bound fragment P1 was then separated by antibodies against nidogen.

recombinant nidogen [5] = target: T3, recombinant nidogen; test: radioligand competition assay: inhibitor varied, 0.2 nM recombinant nidogen, 125I-laminin fragment P1
Protocol: as §1

recombinant nidogen [6] = target: T3, recombinant nidogen; test: radioligand competition assay, reduced and alkylated against the non-reduced mutant
Protocol: as §1

[7] = target: T2, recombinant nidogen (Mus musculus (Mouse)); test: radioligand competition assay, synthetic heptapeptide variant
[8] = target: T2, recombinant nidogen (Mus musculus (Mouse)); test: radioligand competition assay: inhibitor varied, 0.2 nM recombinant nidogen, 125I-laminin fragment P1
recombinant nidogen [9] = target: T3, recombinant nidogen; test: radioligand competition assay, reduced and alkylated against the non-reduced chimera
Protocol: as §1

recombinant nidogen [10] = target: T3, recombinant nidogen; test: radioligand competition assay, nitrated γ1III3-5
Protocol: as §1

recombinant nidogen [11] = target: T3, recombinant nidogen; test: radioligand competition assay: inhibitor varied, 0.2 nM recombinant nidogen, 125I-laminin fragment P1; remark: listed apart in the source
Protocol: as §1

recombinant nidogen [12] = target: T3, recombinant nidogen; test: radioligand competition assay, Tyr-acetylated γ1III3-5
Protocol: as §1

recombinant nidogen [13] = target: T3, recombinant nidogen; test: radioligand competition assay
Protocol: as §1

recombinant nidogen [14] = target: T3, recombinant nidogen; test: radioligand competition assay, synthetic heptapeptide variant
Protocol: as §1

recombinant nidogen [15] = target: T3, recombinant nidogen; test: radioligand competition assay: inhibitor varied, 0.2 nM recombinant nidogen, 125I-laminin fragment P1; remark: listed apart in the source
Protocol: as §1

laminin 1: laminin of chain composition α1β1γ1
Kd (nidogen): 0.5 nM

laminin fragment P1
IC50 [1]: 0.08 nM | IC50 [2]: 0.05 nM | IC50 [3]: 0.05 nM

B1: γ1III4Y819-A (other)
chain: PCQCNDNIDPNAVGNCNRLTGECLKCIANTAGFYCDRCKEGFFGNPLAPNPADKCK
fold reduction in activity against wild-type γ1III4 (recombinant nidogen [4]): 30 to 60 fold | IC50 (recombinant nidogen [5]): 3 nM

B2: γ1III4Y819/825-A (other)
chain: B1 chain with Y34A
fold reduction in activity against wild-type γ1III4 (recombinant nidogen [4]): 30 to 60 fold | IC50 (recombinant nidogen [5]): 1.5 nM

B3: γ1III4Y819/825-A, reduced (other)
chain: PC(Succinimide(1-Et,3-yl))QC(Succinimide(1-Et,3-yl))NDNIDPNAVGNC(Succinimide(1-Et,3-yl))NRLTGEC(Succinimide(1-Et,3-yl))LKC(Succinimide(1-Et,3-yl))IANTAGFAC(Succinimide(1-Et,3-yl))DRC(Succinimide(1-Et,3-yl))KEGFFGNPLAPNPADKC(Succinimide(1-Et,3-yl))K
fold decrease in activity on reduction and alkylation (recombinant nidogen [6]): ~300 fold | IC50 (recombinant nidogen [5]): 430 nM

B4: NINPNAV (peptide)
peptide: NINPNAV
fold reduction in activity against the heptapeptide NIDPNAV [7]: 100 fold | IC50 [8]: 100000 nM

B5: γ1III3ab4cd, reduced (other)
chain: PC(Succinimide(1-Et,3-yl))PC(Succinimide(1-Et,3-yl))PGGSSC(Succinimide(1-Et,3-yl))AIVPKTKEVVC(Succinimide(1-Et,3-yl))THC(Succinimide(1-Et,3-yl))IYNTAGFYC(Succinimide(1-Et,3-yl))DRC(Succinimide(1-Et,3-yl))KEGFFGNPLAPNPADKC(Succinimide(1-Et,3-yl))K
fold decrease in activity on reduction and alkylation (recombinant nidogen [9]): 6 fold | IC50 (recombinant nidogen [5]): 6700 nM

B6: nitrated γ1III3-5 (other)
chain: PCPCPGGSSCAIVPKTKEVVCTHCPTGTAGKRCELCDDGYFGDPLGSNGPVRLCRPCQCNDNIDPNAVGNCNRLTGECLKCIYNTAGFYCDRCKEGFFGNPLAPNPADKCKACACNPYGTVQQQSSCNPVTGQCQCLPHVSGRDCGTCDPGYYNLQSGQGCE
modifications: tyrosines nitrated with tetranitromethane
fold decrease in binding activity against unmodified γ1III3-5 (recombinant nidogen [10]): 75 fold | IC50 (recombinant nidogen [11]): 3 nM

B7: γ1III3-5, Tyr acetylation (other)
chain: B6 chain
modifications: tyrosine hydroxyl groups acetylated with acetic acid anhydride
fold decrease in binding activity against unmodified γ1III3-5 (recombinant nidogen [12]): 75 fold | IC50 (recombinant nidogen [11]): 3 nM

B8: synthetic loop a,b, oxidized (792-815) (peptide)
peptide: PCQCNDNTDPNAVGNCNRLTGECL
modifications: disulfide (positions not given here)
fold higher IC50 than fragment P1 (recombinant nidogen [13]): 5000 fold | IC50 (recombinant nidogen [11]): 380 nM | IC50 (recombinant nidogen [5]): 270 nM

B9: NIDQNAV (peptide)
peptide: NIDQNAV
fold decrease in activity against the heptapeptide NIDPNAV (recombinant nidogen [14]): 3 fold | IC50 (recombinant nidogen [15]): 2400 nM

B10: NIDPNVV (peptide)
peptide: NIDPNVV
fold decrease in activity against the heptapeptide NIDPNAV (recombinant nidogen [14]): 16 fold | IC50 (recombinant nidogen [15]): 16000 nM
